Experimental data published in US11673947B2, “Target tissue-specific antigen-binding molecule” (Chugai Seiyaku Kabushiki Kaisha, priority 2012, dated 2023).
Numbering of substitutions follows the chain as printed.

B1: 6RAD2C1-4_030: antibody that binds to hIL-6R in the presence of ATP; variable regions SEQ ID NOs: 119 and 120 (antibody, listed as Homo sapiens, V domains shown)
VH: EVQLVESGGDLVKPGGGLRLSCAASGFTFSSYTMNWVRQAPGKGLEWVSSISSRSGYAYYADSVKGRFTISRDNAKNSLYLQMNSLRAEDTAVYYCARFGALNTLNWVFDYWGQGTLVTVSS
VL: QSALTQPPSASGSPGQTVTISCTGTSTDVGDYNYVSWYQQHPGKAPKLMIYQVSKKPSGVPDRFSGSKSGNTASLTVSGLQAEDEADYFCSTRTANAGVLFGGGTKLTVL
B2: ATNLSA1-4_D12: ATP/adenosine-binding antibody from human antibody library; variable regions SEQ ID NOs: 46 and 47 (antibody, listed as Homo sapiens, V domains shown)
VH: QVQLQESGGDLVKPGGSLRLSCAASGFTFNTYTMNWVRQAPGKGLEWLSSISSRSNYINYADSVKGRFTISRDNAKNSLYLQMNSLRAEDTAVYYCARFGRKGDLNWVFDYWGQGTLVTVSS
VL: QSALTQPPSASGSPGQSVTISCTGTSSDVGGYNYVSWYQQHPGKAPKLMIYEVSKRPSGVPDRFSGSKSGNTASLTVSGLQAEDEADYFCSSYAGSNNVVFGGGTKLTVL
B3: 6RAD2C1-4_011: antibody that binds to hIL-6R in the presence of ATP; variable regions SEQ ID NOs: 82 and 83 (antibody, listed as Homo sapiens, V domains shown)
VH: B1 VH with S31G, Y32H, G56S, A58I, F99Y, N103G, T104Q, L105M
VL: B1 VL with Q52S, K56R, T92S, T94S, A95S, N96S, A97M, G98N

Key:
[1] = tested on: CHO/hIL6R (CHO cells expressing human IL-6 receptor); assay: ADCC (chrome release) with NK92-CD16(V) as effector cells against CHO/hIL6R cells; format: cell-based; details: in the presence of ATP, various antibody concentrations; variants with increased effector activity
Description: The obtained antibodies 6RAD2C1-4_030 and 6RAD2C1-4_011 were assessed by the method described below to test whether ADCC activity against hIL-6R-expressing cells is mediated via hIL-6R binding of the antibodies in the presence of adenosine triphosphate (ATP). […] At various antibody concentrations in the presence or absence of ATP, 6RAD2C1-4_030, 6RAD2C1-4_011, and MRA were assessed for the ADCC activity to hIL-6R-expressing cells according to the method described in Reference Example 3.
Antibodies that bind to antigens in an ATP-dependent manner were assessed for their ADCC activity against antigen-expressing cells at various antibody concentrations according to the method described below. […]
ADCC activity was assessed based on the specific chrome release rate determined by chrome release assay. […] 100 μl of culture supernatant from each well of the plate was measured for radioactivity using a gamma counter. The specific chrome release rate was determined based on the equation described in Reference Example 1.

[2] = Biacore T200, binding of D12 to ADP; details: 50 mM Tris-HCl, 500 mM NaCl, 0.01% Tween20, 15° C.
Excerpt: (§1) Biacore T200 (GE Healthcare) was used to analyze the interaction of D12, in which the constant region of IgG is linked to the variable region of clone ATNLSA1-4_D12 with ATP- and adenosine-binding activity, in antigen-antibody reaction. Sensor chip CM5 or CM4 (GE Healthcare) was immobilized with an appropriate amount of protein A (Life technologies) by amine coupling. The antibody of interest was captured by the chip to allow interaction with ATP (Wako), adenosine (Wako), or ADP (adenosine diphosphate) (Wako) as an antigen. The running buffer used was 50 mM Tris-HCl (Takara, T903), 500 mM NaCl, 0.01% (w/v) Tween20. The antigen was allowed to interact for 30 seconds at a flow rate of 30 μl/min, and was dissociated for 30 seconds. The interaction with the antigen was assessed at 15° C. The antigen was diluted using the same running buffer.
(§2) The dissociation constant KD (M) was calculated based on the association rate constant ka (1/Ms) and dissociation rate constant kd (1/s), both of which are kinetic parameters calculated from the sensorgram obtained by the measurement. Alternatively, the dissociation constant KD (M) was calculated using steady state analysis. Each parameter was calculated using the Biacore T200 Evaluation Software (GE Healthcare).

Tm measurement by DSC = format: physicochemical
Description: Then, for the purpose of improving antibody stability, the framework sequence of ATNLSA1-4_D12 was restored to the germ line sequence VH3-21 by introducing into the framework sequence of ATNLSA1-4_D12, alterations Gln01Glu, Gln05Val, Asp10Gly, Asn30Ser, Leu48Val, and Asn58Tyr (numerals represent Kabat numbers). ATNLSA1-4_D12 variants expressed and purified by the method described in Example 7-1 were measured for their Tm by DSC. DSC measurement was carried out by a method known to those skilled in the art.

[3] = Biacore T200, binding of D12 and variants to adenosine (steady state, Formula 2); details: 15° C., specific response with/without 20 μmol/l ADP
Excerpt: as §1, §2
In addition, the binding response was separately assessed in the presence of 20 μmol/l ADP. […]

[4] = Competitive phage ELISA, inhibition of binding to biotin-labeled antigens by ATP; details: ATP from an equal amount up to 10000 times that of the antigen
Description: ATNLSA1-4_D12 and PF1 were each diluted with TBS and subjected to ELISA by the following procedure.
A StreptaWell 96 microtiter plate (Roche) was coated at room temperature for one hour with 100 μl of TBS containing biotin-labeled antigens (a mixture of 5′-adenosine-PEG-biotin and ATP-PEG-biotin). After the antigens were removed by washing each well of the plate with TBST, the wells were blocked with 250 μl of 2% skim milk/TBS for one hour or more. 2% skim milk/TBS was removed, and then the prepared, purified phages were added to each well. The plate was allowed to stand at room temperature for one hour to allow binding of the antibody-displaying phages to the antigens in each well. […] For the competition of the immobilized antigen with ATP, the plate was allowed to stand at room temperature for one hour. Then, after TBST wash, an HRP-conjugated anti-M13 antibody (Amersham Pharmacia Biotech) diluted with TBS was added to each well. The plate was incubated for one hour. Following TBST wash, the TMB single solution (ZYMED) was added to each well. The chromogenic reaction in the solution of each well was terminated by adding sulfuric acid. Then, the developed color was assessed by measuring absorbance at 450 nm.

[5] = Phage ELISA, binding to 2′-adenosine-PEG-biotin, 5′-adenosine-PEG-biotin and ATP-PEG-biotin
Description: From single colonies of E. coli obtained by panning as described in the Example above, culture supernatants containing phages were collected according to a conventional method (Method Mol. Biol. (2002) 178, 133-145). The collected culture supernatants were treated by ultrafiltration using NucleoFast 96 (MACHERY-NAGEL). 100 μl of the culture supernatants were added to each well of NucleoFast 96 and centrifuged at 4500 g for 45 minutes to remove flow through. After addition of 100 μl of H2O, the NucleoFast 96 was washed by centrifugation at 4500 g for 30 minutes. After addition of 100 μl of TBS, the NucleoFast 96 was allowed to stand for five minutes at room temperature. Then, phage suspensions were collected from the supernatants.
Purified phages, to which TBS was added, were subjected to ELISA by the following procedure. […] Then, the developed color was assessed by measuring absorbance at 450 nm.
Next, for the purpose of confirming to which antigen of 2′-adenosine-PEG-biotin, 5′-adenosine-PEG-biotin, and ATP-PEG-biotin these clones have binding ability, the purified phages diluted with TBS were subjected to ELISA by the following procedure. […] Then, the developed color was assessed by measuring absorbance at 450 nm.

[6] = Biacore T200, binding of D12 and ATNLSA1-4_D12 variants to ATP; details: 50 mM Tris-HCl, 500 mM NaCl, 0.01% Tween20, 15° C.
Excerpt: as §1, with “The antigen was allowed to interact for 30 seconds at a flow rate of 30 μl/min, and was dissociated for 30 seconds.” left out, “The antigen was diluted using the same running buffer.” left out
as §2
Each variant expressed and purified by the method described in Example 7-1 was assayed for its ATP and adenosine binding by the same method as described in Example 7-6 using Biacore. Based on the assay result, the affinity of each variant for ATP was calculated as a KD value. […]

Molecule	ADCC activity against hIL-6R-expressing cells [1]	Kd [2]	Tm (Tm measurement by DSC)	Kd [3]	binding to antigen in the presence of ATP [4]	binding to biotin-labeled antigens (phage ELISA) [5]	Kd [6]
B1	antibody concentration-dependent ADCC activity						
B2		0.25 µM	74.37 °C	1100 µM	inhibited in an ATP concentration-dependent manner	had the ability to bind to both 5′-Adenosine-PEG-biotin and ATP-PEG-biotin	8.5 µM
B3	antibody concentration-dependent ADCC activity						
